Values of other authors as cited in PMC7915401.
Where two headings read alike, the source gives them in different places.

How the values were obtained:
[1] = target: CD200R1 (Homo sapiens) (UniProt Q8TD46)
[2] = target: CD200R1 (Homo sapiens) (UniProt Q8TD46); remark: listed apart in the source

Chain of UniProt Q8TD46 (Q8TD46 25-265): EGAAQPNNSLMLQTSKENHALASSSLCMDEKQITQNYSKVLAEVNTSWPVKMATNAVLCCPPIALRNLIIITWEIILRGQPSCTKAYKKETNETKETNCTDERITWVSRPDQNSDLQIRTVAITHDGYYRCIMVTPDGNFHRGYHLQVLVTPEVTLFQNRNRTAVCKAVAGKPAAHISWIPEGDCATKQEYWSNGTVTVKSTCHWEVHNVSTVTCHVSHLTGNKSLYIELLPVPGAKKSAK

Row | Substance | Kd [1] [nM] | Kd [2] [nM]
1 | CD200 (from UniProt P41217) | 500 | –
2 | K14 (vOX2) (from UniProt P0C788) | – | 500
